Values of other authors as cited in PMC11084152, “Galf-Specific Neolectins: Towards Promising Diagnostic Tools” (International Journal of Molecular Sciences, 2024).

Design: method as in PMID 26148048
Settings: β-D-Galf-substituted surface; read-out: functional affinity value

B1: hIntL-1: human intelectin-1, galactofuranosyl-binding lectin used as positive control (protein, UniProt Q8WWA0 19-298, looked up)
Intelectin-1: TDEANTYFKEWTCSSSPSLPRSCKEIKDECPSAFDGLYFLRTENGVIYQTFCDMTSGGGGWTLVASVHENDMRGKCTVGDRWSSQQGSKAVYPEGDGNWANYNTFGSAEAATSDDYKNPGYYDIQAKDLGIWHVPNKSPMQHWRNSSLLRYRTDTGFLQTLGHNLFGIYQKYPVKYGEGKCWTDNGPVIPVVYDFGDAQKTASYYSPYGQREFTAGFVQFRVFNNERAANALCAGMRVTGCNTEHHCIGGGGYFPEASPQQCGDFSGFDWSGYGTHVGYS
In the case of B1, the Kd is listed as 85 ± 14 nM.
